Measured values published in patent publication US20260240998A1 (JICHI MEDICAL UNIVERSITY, published 2026).

Biological target: T1, B-cell maturation antigen (BCMA) (human, UniProt Q02223 1-184)
T1 sequence (looked up): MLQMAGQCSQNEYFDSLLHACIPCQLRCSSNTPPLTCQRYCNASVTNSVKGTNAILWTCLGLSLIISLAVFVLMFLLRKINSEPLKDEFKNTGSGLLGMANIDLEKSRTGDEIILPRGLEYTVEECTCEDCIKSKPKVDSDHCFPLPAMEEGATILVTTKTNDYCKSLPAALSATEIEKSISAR
Assay: cell-based or functional assay

- luminescence intensity ratio of the U266 co-culture group to the control group (transduced cells only): 62.8 times
B1: BCMA-CAR (L20H), LH construct derived from anti-BCMA antibody 1 with a 20 amino acid linker (other)
chain: DIVLTQSPASLAVSLGQRATISCRASKSVSTSGYSYMHWYQQKPGQPPRLLIYLASNLESGVPARFSGSGSGTDFTLNIHPVEEEDAATYYCQHSRELPFTFGSGTKLEIKGGGGSGGGGSGGGGSGGGGSEVQLQQSGPELVKPGASVKMSCKASGYTFTNYIIHWVKQKPGQGLEWIGYIIPYNDGSKYNEKFKGKATLTSDKSSSTAYMELSSLTSEDSAVYYCARLTFSYDSYAMDYWGQGTSVTVSSATGAAAIEVMYPPPYLDNEKSNGTIIHVKGKHLCPSPLFPGPSKPFWVLVVVGGVLACYSLLVTVAFIIFWVRSKRSRLLHSDYMNMTPRRPGPTRKHYQPYAPPRDFAAYRSRVKFSRSADAPAYQQGQNQLYNELNLGRREEYDVLDKRRGRDPEMGGKPRRKNPQEGLYNELQKDKMAEAYSEIGMKGERRRGKGHDGLYQGLSTATKDTYDALHMQALPPR
